Measured values as given in IntAct's records for PubMed 16525419.

B1: Nephrin (Homo sapiens), O60500 (parent)
chain: MALGTTLRASLLLLGLLTEGLAQLAIPASVPRGFWALPENLTVVEGASVELRCGVSTPGSAVQWAKDGLLLGPDPRIPGFPRYRLEGDPARGEFHLHIEACDLSDDAEYECQVGRSEMGPELVSPRVILSILVPPKLLLLTPEAGTMVTWVAGQEYVVNCVSGDAKPAPDITILLSGQTISDISANVNEGSQQKLFTVEATARVTPRSSDNRQLLVCEASSPALEAPIKASFTVNVLFPPGPPVIEWPGLDEGHVRAGQSLELPCVARGGNPLATLQWLKNGQPVSTAWGTEHTQAVARSVLVMTVRPEDHGAQLSCEAHNSVSAGTQEHGITLQVTFPPSAIIILGSASQTENKNVTLSCVSKSSRPRVLLRWWLGWRQLLPMEETVMDGLHGGHISMSNLTFLARREDNGLTLTCEAFSEAFTKETFKKSLILNVKYPAQKLWIEGPPEGQKLRAGTRVRLVCLAIGGNPEPSLMWYKDSRTVTESRLPQESRRVHLGSVEKSGSTFSRELVLVTGPSDNQAKFTCKAGQLSASTQLAVQFPPTNVTILANASALRPGDALNLTCVSVSSNPPVNLSWDKEGERLEGVAAPPRRAPFKGSAAARSVLLQVSSRDHGQRVTCRAHSAELRETVSSFYRLNVLYRPEFLGEQVLVVTAVEQGEALLPVSVSANPAPEAFNWTFRGYRLSPAGGPRHRILSSGALHLWNVTRADDGLYQLHCQNSEGTAEARLRLDVHYAPTIRALQDPTEVNVGGSVDIVCTVDANPILPGMFNWERLGEDEEDQSLDDMEKISRGPTGRLRIHHAKLAQAGAYQCIVDNGVAPPARRLLRLVVRFAPQVEHPTPLTKVAAAGDSTSSATLHCRARGVPNIVFTWTKNGVPLDLQDPRYTEHTYHQGGVHSSLLTIANVSAAQDYALFTCTATNALGSDQTNIQLVSISRPDPPSGLKVVSLTPHSVGLEWKPGFDGGLPQRFCIRYEALGTPGFHYVDVVPPQATTFTLTGLQPSTRYRVWLLASNALGDSGLADKGTQLPITTPGLHQPSGEPEDQLPTEPPSGPSGLPLLPVLFALGGLLLLSNASCVGGVLWQRRLRRLAEGISEKTEAGSEEDRVRNEYEESQWTGERDTQSSTVSTTEAEPYYRSLRDFSPQLPPTQEEVSYSRGFTGEDEDMAFPGHLYDEVERTYPPSGAWGPLYDEVQMGPWDLHWPEDTYQDPRGIYDQVAGDLDTLEPDSLPFELRGHLV

Key:
nck1_human NCK1, P16333 = variants of: B1; settings: with nck1_human NCK1, P16333
nck2_human NCK2, O43639 [1] = variants of: B1; settings: with nck2_human NCK2, O43639
wasp_mouse Was, P70315 = variants of: B1; settings: with wasp_mouse Was
nck2_human NCK2, O43639 [2] = variants of: B1; settings: with nck2_human NCK2, O43639; remark: listed apart in the source

nck2_human NCK2, O43639, sequence (O43639 whole entry): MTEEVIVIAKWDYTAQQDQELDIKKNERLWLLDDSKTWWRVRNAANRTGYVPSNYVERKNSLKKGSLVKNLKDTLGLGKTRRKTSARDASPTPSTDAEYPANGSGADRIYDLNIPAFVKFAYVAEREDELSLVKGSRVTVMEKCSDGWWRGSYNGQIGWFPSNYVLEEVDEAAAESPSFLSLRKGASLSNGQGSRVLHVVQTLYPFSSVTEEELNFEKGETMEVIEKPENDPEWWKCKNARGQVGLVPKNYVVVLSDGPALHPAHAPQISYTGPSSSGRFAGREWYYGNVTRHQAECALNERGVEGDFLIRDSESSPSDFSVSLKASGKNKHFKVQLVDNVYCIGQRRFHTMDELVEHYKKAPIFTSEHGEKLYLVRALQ
wasp_mouse Was, P70315, sequence (P70315 whole entry): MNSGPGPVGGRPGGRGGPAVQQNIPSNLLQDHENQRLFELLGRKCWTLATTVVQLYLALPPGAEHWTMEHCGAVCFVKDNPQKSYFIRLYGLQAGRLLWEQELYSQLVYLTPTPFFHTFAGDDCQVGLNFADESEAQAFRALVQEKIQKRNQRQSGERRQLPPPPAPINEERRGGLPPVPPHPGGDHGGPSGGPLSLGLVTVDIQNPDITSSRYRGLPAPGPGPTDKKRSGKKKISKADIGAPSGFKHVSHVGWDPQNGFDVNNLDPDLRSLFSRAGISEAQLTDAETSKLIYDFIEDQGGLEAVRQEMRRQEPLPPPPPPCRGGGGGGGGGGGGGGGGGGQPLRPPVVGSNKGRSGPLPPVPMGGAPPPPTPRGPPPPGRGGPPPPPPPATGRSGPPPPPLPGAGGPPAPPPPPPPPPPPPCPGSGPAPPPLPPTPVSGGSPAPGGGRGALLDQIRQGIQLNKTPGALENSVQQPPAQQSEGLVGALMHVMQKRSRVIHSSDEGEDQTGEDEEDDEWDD

Y1176F;Y1217F
effect of a mutation on the interaction (nck1_human NCK1, P16333): decreasing interaction

Y1193F;Y1217F
effect of a mutation on the interaction (nck1_human NCK1, P16333): decreasing interaction

Y1176F;Y1193F;Y1217F
effect of a mutation on the interaction (nck1_human NCK1, P16333): decreasing interaction
effect of a mutation on the interaction (nck2_human NCK2, O43639 [1]): disrupting interaction
effect of a mutation on the interaction (wasp_mouse Was, P70315): disrupting interaction
effect of a mutation on the interaction (nck2_human NCK2, O43639 [2]): disrupting interaction
